Experimental data: US6890721

B1: granzyme B-processed ICE LAP-6 (activated) (protein)
chain: IGSGGFGDVGALESLRGNADLAYILSMEPCGHCLIINNVNFCRESGLRTRTGSNIDCEKLRRRFSSLHFMVEVKGDLTAKKMVLALLELARQDHGALDCCVVVILSHGCQASHLQFPGAVYGTDGCPVSVEKIVNIFNGTSCPSLGGKPKLFFIQACGGEQKDHGFEVASTSPEDESPGSNPEPDATPFQEGLRTFDQLDAISSLPTPSDIFVSYSTFPGFVSWRDPKSGSWYVETLDDIFEQWAHSEDLQSLLLRVANAVSVKGIYKQMPGCFNFLRKKLFFKTSHHHHHH
B2: granzyme B-processed Yama (activated) (protein)
chain: SGISLDNSYKMDYPEMGLCIIINNKNFHKSTGMTSRSGTDVDAANLRETFRNLKYEVRNKNDLTREEIVELMRDVSKEDHSKRSSFVCVLLSHGEEGIIFGTNGPVDLKKITNFFRGDRCRSLTGKPKLFIIQACRGTELDCGIETDSGVDDDMACHKIPVEADFLYAYSTAPGYYSWRNSKDGSWFIQSLCAMLKQYADKLEFMHILTRVNRKVATEFESFSFDATFHAKKQIPCIVSMLTKELYFYH

Molecular target: poly (ADP-ribose) polymerase (PARP)

Row | Protein | PARP cleavage (immunoblot with anti-PARP monoclonal antibody C-2-10)
1 | B1 | Both granzyme B-processed Yama and ICE LAP-6 were active as determined by their ability to cleave PARP
2 | B2 | Both granzyme B-processed Yama and ICE LAP-6 were active as determined by their ability to cleave PARP
